This note sets out measurements from US20210101937A1.

The target of the assay is CD137 (UniProt Q07011). In words: cell-based or functional assay.
CD137, sequence (Q07011 24-255 limits assumed): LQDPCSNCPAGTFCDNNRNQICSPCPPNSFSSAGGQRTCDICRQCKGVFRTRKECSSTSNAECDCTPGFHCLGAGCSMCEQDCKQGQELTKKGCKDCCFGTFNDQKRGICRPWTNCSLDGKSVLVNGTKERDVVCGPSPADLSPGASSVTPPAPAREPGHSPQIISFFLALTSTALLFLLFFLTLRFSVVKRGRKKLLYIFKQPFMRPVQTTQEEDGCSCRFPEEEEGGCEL

On to BCY9173 (peptide), for which the EC50, CD137 reporter coculture assay with PC3 cells amounted to 0.54 nM and the Emax, CD137 reporter coculture assay with PC3 cells (fold over background) was determined as 42.

The substance BCY10000 (peptide) registered an EC50, CD137 reporter coculture assay with NCI-H292 cells of 1.1 nM and an Emax, CD137 reporter coculture assay with NCI-H292 cells (fold over background) of 28.
